Test [1] deals with T1, CD28 (human, UniProt P10747 19-220).
T1 construct: whole, on cells; On human pan T cells and on H929 myeloma cells; the assay field says which; also called Cluster of Differentiation 28
Put plainly: flow cytometry, human pan T cells, donor 2.

Test [2] deals with T1, CD28. As to the kind of experiment: flow cytometry, H929 cells; antibody has no BCMA arm. (In general: In flow cytometry, cells or beads pass a laser one at a time.)
Test [3] concerns the target T1, CD28. As to the kind of experiment: flow cytometry, human pan T cells, donor 2. This is another data set of the same source.
Procedure: (§1) Binding assay. […] Post Pan T cell isolation. 0.1×10⁶ cells were seeded per well of a 96 well V-bottom plate. Cells were stained with the fixable violet live/dead stain (L34955, Thermofisher) for 20 mins on ice in dark according to the manufacturer's protocol. Post staining cells were washed with FACS buffer (PBS+2% FBS) by spinning at 1500 rpm for 5 mins. Supernatant was discarded and cells were suspended in 100 μl the respective antibody dilutions with a starting concentration of 5 g/ml and 3-fold serial dilutions. Antibody dilutions were prepared in FACS buffer. Cells were incubated with the antibody dilutions for 30 mins at 37° C. At the end of the incubation period, cells were washed twice with FACS buffer as above followed by staining with PE conjugated Goat polyclonal antibody to human IgG (ab98596, Abcam) at a 1:50 dilution in FACS buffer. Cells were incubated with the secondary antibody for 30 mins on ice. At the end of incubation period the cells were washed with FACS buffer as above. […] Cells were pelleted and resuspended in FACS buffer for acquisition on the NOVOCYTE flow cytometer (ACEA Biosciences). […] Samples were analyzed by gating on the live cells and percentage binding was obtained by subtracting the background fluorescence from the secondary only control.
Test [4] addresses T1, CD28. As to the kind of experiment: flow cytometry, H929 cells (BCMA+, CD28+); whole-cell EC50, antibody has BCMA and CD28 arms.
The target of test [5] is T2, BCMA (human, UniProt Q02223 1-184).
T2 construct: whole, on cells; On NCI-H929 myeloma cells, which also carry CD28; also called B-cell maturation antigen; TNFRSF17
T2 sequence (looked up): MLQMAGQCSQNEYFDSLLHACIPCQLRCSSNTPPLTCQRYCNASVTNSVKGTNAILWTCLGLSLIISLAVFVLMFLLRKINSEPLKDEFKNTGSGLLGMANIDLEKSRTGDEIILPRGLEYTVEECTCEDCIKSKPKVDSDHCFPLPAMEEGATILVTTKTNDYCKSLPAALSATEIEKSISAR
Described as above.

For test [6], the target named is T3, T cell receptor Vβ17 on human T cells (human).
T3 construct: whole, on cells; Vβ17+ fraction (about 5%) of human pan T cells, αβ-enriched T cells or M1-stimulated T cells; also called TCR Vβ17; Vb17
T3 sequence (A0A075B6N1 22-114): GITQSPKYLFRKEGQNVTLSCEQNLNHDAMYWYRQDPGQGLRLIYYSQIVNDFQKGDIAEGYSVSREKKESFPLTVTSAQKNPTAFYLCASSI
As to the kind of experiment: flow cytometry, human pan T cells, donor 1; antibody has no CD28 arm.

The target of test [7] is T2, BCMA. Put plainly: flow cytometry, H929 cells; antibody has no CD28 arm.
Test [8] addresses T3, T cell receptor Vβ17 on human T cells. As to the kind of experiment: flow cytometry, human pan T cells, donor 2; antibody has no CD28 arm.
In test [9] the target is T1, CD28. Put plainly: flow cytometry, human pan T cells.
Procedure: Post Pan T cell isolation. 0.1×10⁶ cells were seeded per well of a 96 well V-bottom plate. Cells were stained with the fixable violet live/dead stain (L34955, Thermofisher) for 20 mins on ice in dark according to the manufacturer's protocol. Post staining cells were washed with FACS buffer (PBS+2% FBS) by spinning at 1500 rpm for 5 mins. Supernatant was discarded and cells were suspended in 100 μl the respective antibody dilutions with a starting concentration of 5 g/ml and 3-fold serial dilutions. Antibody dilutions were prepared in FACS buffer. Cells were incubated with the antibody dilutions for 30 mins at 37° C. At the end of the incubation period, cells were washed twice with FACS buffer as above followed by staining with PE conjugated Goat polyclonal antibody to human IgG (ab98596, Abcam) at a 1:50 dilution in FACS buffer. Cells were incubated with the secondary antibody for 30 mins on ice. At the end of incubation period the cells were washed with FACS buffer as above. […] Cells were pelleted and resuspended in FACS buffer for acquisition on the NOVOCYTE flow cytometer (ACEA Biosciences). For binding assays using the H929 cells, 0.1×10⁶ H929 cells were seeded per well of a 96 well V-bottom plate and stained as above. Samples were analyzed by gating on the live cells and percentage binding was obtained by subtracting the background fluorescence from the secondary only control. […]
In test [10] the target is T1, CD28. As to the kind of experiment: flow cytometry, H929 cells (BCMA+, CD28+); whole-cell EC50, antibody has BCMA and CD28 arms. The source holds these as a separate data set.
Procedure: (§2) Post Pan T cell isolation. 0.1×10⁶ cells were seeded per well of a 96 well V-bottom plate. Cells were stained with the fixable violet live/dead stain (L34955, Thermofisher) for 20 mins on ice in dark according to the manufacturer's protocol. Post staining cells were washed with FACS buffer (PBS+2% FBS) by spinning at 1500 rpm for 5 mins. Supernatant was discarded and cells were suspended in 100 μl the respective antibody dilutions with a starting concentration of 5 g/ml and 3-fold serial dilutions. Antibody dilutions were prepared in FACS buffer. Cells were incubated with the antibody dilutions for 30 mins at 37° C. At the end of the incubation period, cells were washed twice with FACS buffer as above followed by staining with PE conjugated Goat polyclonal antibody to human IgG (ab98596, Abcam) at a 1:50 dilution in FACS buffer. Cells were incubated with the secondary antibody for 30 mins on ice. At the end of incubation period the cells were washed with FACS buffer as above. […] Cells were pelleted and resuspended in FACS buffer for acquisition on the NOVOCYTE flow cytometer (ACEA Biosciences). For binding assays using the H929 cells, 0.1×10⁶ H929 cells were seeded per well of a 96 well V-bottom plate and stained as above. Samples were analyzed by gating on the live cells and percentage binding was obtained by subtracting the background fluorescence from the secondary only control.
Test [11] concerns the target T2, BCMA. The test is described as above. The source holds these as a separate data set.
Procedure: as §2
Test [12] deals with T1, CD28. Put plainly: flow cytometry, human pan T cells, donor 1.
In test [13] the target is T1, CD28. Put plainly: flow cytometry, human pan T cells, donor 1. The source holds these as a separate data set.
Procedure: as §1
The target in test [14] is T4, PSMA (human, UniProt Q04609 1-750).
T4 construct: whole, on cells; On LnCaP and C4-2B cells; also called prostate-specific membrane antigen
T4 sequence (Q04609 whole entry): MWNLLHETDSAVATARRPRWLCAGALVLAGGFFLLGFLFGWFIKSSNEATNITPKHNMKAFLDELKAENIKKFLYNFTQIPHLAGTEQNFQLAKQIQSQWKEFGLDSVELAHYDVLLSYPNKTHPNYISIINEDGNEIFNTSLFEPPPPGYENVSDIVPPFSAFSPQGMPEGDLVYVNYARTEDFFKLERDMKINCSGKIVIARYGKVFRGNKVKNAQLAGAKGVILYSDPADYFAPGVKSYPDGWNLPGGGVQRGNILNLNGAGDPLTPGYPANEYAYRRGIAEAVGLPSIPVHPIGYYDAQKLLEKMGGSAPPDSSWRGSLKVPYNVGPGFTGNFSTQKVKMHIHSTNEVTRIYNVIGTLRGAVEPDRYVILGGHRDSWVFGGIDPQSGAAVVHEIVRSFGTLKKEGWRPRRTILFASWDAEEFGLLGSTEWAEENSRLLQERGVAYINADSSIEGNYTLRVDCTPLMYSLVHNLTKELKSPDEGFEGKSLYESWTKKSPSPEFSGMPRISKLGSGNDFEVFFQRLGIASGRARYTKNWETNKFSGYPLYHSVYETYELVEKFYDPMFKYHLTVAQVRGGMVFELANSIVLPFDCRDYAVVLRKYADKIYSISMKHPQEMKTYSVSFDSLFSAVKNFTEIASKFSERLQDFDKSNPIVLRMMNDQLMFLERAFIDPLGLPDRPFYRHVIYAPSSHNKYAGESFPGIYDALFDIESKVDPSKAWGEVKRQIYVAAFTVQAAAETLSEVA
Put plainly: flow cytometry, LnCaP cells.

Test [15] concerns the target T4, PSMA. As to the kind of experiment: flow cytometry, C4-2B cells.

B1: VB28B33 (bispecific antibody)
scFv: not shown
heavy: QVQLQQPGSELVRPGASVKLSCKASGYTFTSYWMHWVKQRHGQGLEWIGNIYPGSGRTNYDEKFKSKGTLTVDTSSRTAYMHLSSLTSEDSAVYYCTREHYGSNSHPMDYWGQGTSVTVSSASTKGPSVFPLAPSSKSTSGGTAALGCLVKDYFPEPVTVSWNSGALTSGVHTFPAVLQSSGLYSLSSVVTVPSSSLGTQTYICNVNHKPSNTKVDKKVEPKSCDKTHTCPPCPAPEAAGGPSVFLFPPKPKDTLMISRTPEVTCVVVSVSHEDPEVKFNWYVDGVEVHNAKTKPREEQYNSTYRVVSVLTVLHQDWLNGKEYKCKVSNKALPAPIEKTISKAKGQPREPQVYTLPPSREEMTKNQVSLSCAVKGFYPSDIAVEWESNGQPENNYKTTPPVLDSDGSFFLVSKLTVDKSRWQQGNVFSCSVMHEALHNRFTQKSLSLSPGK
light: DIQMTQSPSSLSASVGDRVTITCRSSQSLVHSSGNTYLHWYQQKPGKAPKFLIYKVSNRFSGVPSRFSGSGSGTDFTLTISSLQPEDFATYYCSQSTHVPFTFGQGTKLEIKGGSEGKSSGSGSESKSTGGSQVQLQESGPGLVKPSETLSLTCTVSGYSITSGYFWNWIRQPPGKGLEWIGYISYDGSNNYNPSLKSRVTISRDTSKNQFSLKLSSVTAADTAVYYCASPSPGTGYAVDYWGQGTLVTVSSGGSEGKSSGSGSESKSTGGSDIQMTQSPASLSASVGETVTITCGASENIYGSLNWYQRKQGKSPQLLIYGATNLADGMSSRFSGSGSGRQFSLKISSLHPDDVATYYCQNLLSTPYTFGGGTKLELKRTVAAPSVFIFPPSDEQLKSGTASVVCLLNNFYPREAKVQWKVDNALQSGNSQESVTEQDSKDSTYSLSSTLTLSKADYEKHKVYACEVTHQGLSSPVTKSFNRGEC
notes: Null × CD28 × Vβ17, human IgG1; also called Vβ28B33
On to B1, for which the EC50 with CD28 [1] is greater than 10 mg/L; with CD28 [2] it was 1.4 mg/L; in the test with CD28 [3], greater than 10 mg/L.

B2: VB28B36 (bispecific antibody)
scFv: not shown
heavy: B1 heavy
light: not shown
notes: Null × CD28 × BCMA, human IgG1; also called Vβ28B36
For the molecule B2, the EC50 with CD28 [4] and in the test with BCMA [5] was less than 0.0046 mg/L each time.

B3: B17B619 (bispecific antibody, human IgG1)
heavy: QVQLQESGPGLVKPSETLSLTCTVSGYSITSGYFWNWIRQPPGKGLEWIGYISYDGSNNYNPSLKSRVTISRDTSKNQFSLKLSSVTAADTAVYYCASPSPGTGYAVDYWGQGTLVTVSSASTKGPSVFPLAPSSKSTSGGTAALGCLVKDYFPEPVTVSWNSGALTSGVHTFPAVLQSSGLYSLSSVVTVPSSSLGTQTYICNVNHKPSNTKVDKKVEPKSCDKTHTCPPCPAPEAAGGPSVFLFPPKPKDTLMISRTPEVTCVVVSVSHEDPEVKFNWYVDGVEVHNAKTKPREEQYNSTYRVVSVLTVLHQDWLNGKEYKCKVSNKALPAPIEKTISKAKGQPREPQVYVYPPSREEMTKNQVSLTCLVKGFYPSDIAVEWESNGQPENNYKTTPPVLDSDGSFALVSKLTVDKSRWQQGNVFSCSVMHEALHNRFTQKSLSLSPG
light: DIQMTQSPSSLSASVGDRVTITCRSSQSLVHSSGNTYLHWYQQKPGKAPKFLIYKVSNRFSGVPSRFSGSGSGTDFTLTISSLQPEDFATYYCSQSTHVPFTFGQGTKLEIKRTVAAPSVFIFPPSDEQLKSGTASVVCLLNNFYPREAKVQWKVDNALQSGNSQESVTEQDSKDSTYSLSSTLTLSKADYEKHKVYACEVTHQGLSSPVTKSFNRGEC
scFv-Fc: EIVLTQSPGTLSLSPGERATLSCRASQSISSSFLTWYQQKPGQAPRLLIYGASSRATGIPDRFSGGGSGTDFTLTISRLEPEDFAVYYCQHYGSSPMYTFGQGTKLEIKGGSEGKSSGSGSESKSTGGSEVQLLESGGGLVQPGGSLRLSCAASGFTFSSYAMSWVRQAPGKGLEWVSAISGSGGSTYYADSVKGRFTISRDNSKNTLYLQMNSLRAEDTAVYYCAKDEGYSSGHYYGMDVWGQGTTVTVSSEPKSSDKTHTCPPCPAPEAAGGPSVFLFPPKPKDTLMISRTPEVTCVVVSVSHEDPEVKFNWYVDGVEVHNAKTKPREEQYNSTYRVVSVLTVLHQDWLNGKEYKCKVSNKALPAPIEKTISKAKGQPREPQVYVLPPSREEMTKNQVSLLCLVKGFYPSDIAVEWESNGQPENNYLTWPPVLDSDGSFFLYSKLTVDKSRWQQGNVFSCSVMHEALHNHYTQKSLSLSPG
notes: Human IgG1; also called Vβ17-Fab×BCMA-ScFv; Vb17-B17B21-N33S-Fab-RF × BCMB519-LH-scFv; copies: 1 + 1 + 1
As for B3, the EC50 was 0.159 mg/L in test [6], 0.122 mg/L with BCMA [7] and 0.124 mg/L in test [8].

B4: VB28B40 (bispecific antibody, human IgG1, kappa, L234A L235A)
scFv: DIQMTQSPSSLSASVGDRVTITCRSSQSLVHSSGNTYLHWYQQKPGKAPKFLIYKVSNRFSGVPSRFSGSGSGTDFTLTISSLQPEDFATYYCSQSTHVPFTFGQGTKLEIKGGSEGKSSGSGSESKSTGGSQVQLQESGPGLVKPSETLSLTCTVSGYSITSGYFWNWIRQPPGKGLEWIGYISYDGSNNYNPSLKSRVTISRDTSKNQFSLKLSSVTAADTAVYYCASPSPGTGYAVDYWGQGTLVTVSSEPKSSDKTHTCPPCPAPEAAGGPSVFLFPPKPKDTLMISRTPEVTCVVVSVSHEDPEVKFNWYVDGVEVHNAKTKPREEQYNSTYRVVSVLTVLHQDWLNGKEYKCKVSNKALPAPIEKTISKAKGQPREPQVYTLPPSREEMTKNQVSLWCLVKGFYPSDIAVEWESNGQPENNYKTTPPVLDSDGSFFLYSKLTVDKSRWQQGNVFSCSVMHEALHNHYTQKSLSLSPGK
heavy: not shown
light: not shown
notes: Vβ17 × null × BCMA, human IgG1; not used; also called Vβ28B40
Regarding B4, the results for the EC50 (in [6]; with BCMA [7]; in test [8]) were 1.12 mg/L, 0.121 mg/L and 1.21 mg/L, respectively.

B5: VB28B7 (bispecific antibody)
heavy 1: not shown
light 1: DIQMTQSPASLSASVGETVTITCGASENIYGSLNWYQRKQGKSPQLLIYGATNLADGMSSRFSGSGSGRQFSLKISSLHPDDVATYYCQNLLSTPYTFGGGTKLELKRTVAAPSVFIFPPSDEQLKSGTASVVCLLNNFYPREAKVQWKVDNALQSGNSQESVTEQDSKDSTYSLSSTLTLSKADYEKHKVYACEVTHQGLSSPVTKSFNRGEC
heavy 2: not shown
light 2: B5 light 1
notes: also called Vβ28B7; C28B19 × Null × BCMB519
B5: the EC50 came out at 0.06 mg/L with CD28 [9], 0.1 mg/L with CD28 [10] and 0.1 mg/L with BCMA [11].

B6: VB28B38 (bispecific antibody, human IgG1, kappa, L234A L235A)
scFv: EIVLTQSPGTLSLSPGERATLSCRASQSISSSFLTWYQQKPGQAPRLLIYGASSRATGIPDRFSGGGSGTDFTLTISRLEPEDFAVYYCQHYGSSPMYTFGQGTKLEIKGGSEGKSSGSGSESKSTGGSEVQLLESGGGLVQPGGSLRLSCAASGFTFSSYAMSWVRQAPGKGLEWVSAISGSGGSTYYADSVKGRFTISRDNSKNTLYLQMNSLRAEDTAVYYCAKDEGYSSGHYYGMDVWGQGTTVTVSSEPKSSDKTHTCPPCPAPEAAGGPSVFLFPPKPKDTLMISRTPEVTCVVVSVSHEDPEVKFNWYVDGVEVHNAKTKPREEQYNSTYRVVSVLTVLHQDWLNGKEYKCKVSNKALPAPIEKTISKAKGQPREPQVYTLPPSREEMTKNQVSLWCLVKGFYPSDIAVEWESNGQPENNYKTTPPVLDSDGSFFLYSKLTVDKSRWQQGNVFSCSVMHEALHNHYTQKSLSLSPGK
heavy: B1 heavy
light: B5 light 1
notes: BCMA × CD28, human IgG1; also called Vβ28B38
B6: the EC50 is 1.08 mg/L with CD28 [1], 1.27 mg/L in the test with CD28 [12], less than 0.0046 mg/L with CD28 [4] and less than 0.0046 mg/L with BCMA [5].

B7: VB28B31 (bispecific antibody, human IgG1, kappa, L234A L235A)
scFv: not shown
heavy: B1 heavy
light: B5 light 1
notes: PSMA × CD28, human IgG1; also called Vβ28B31
B7: the EC50 with CD28 [13] was 1.29 mg/L; in the test with PSMA [14] it was 0.15 mg/L; in the test with PSMA [15] it was 1.22 mg/L; with CD28 [3], 0.95 mg/L.

As usually defined, the EC50 is the midpoint of the concentration-response curve. Read a low EC50 as higher potency in that assay.

These data come from patent US20250043004A1 (Janssen / Centocor, published 2025).
